{"source": "the DeepSol protein solubility set", "data": [{"experiment": "soluble on expression in E. coli; label from the status in PepcDB or PDB records", "values": [{"sequence": "MSLKPWLITPERLTSEQIGLLDHFFDRGLERLHLRLPSAGEEDYSQVIEAVAACYRRRIVVHDHPRLVGRYGLCGLHLPERVWKGMTDRPQLPDGCTVSASCHAIEDIESFPFRLDYCFLSPVFDSLCKVGYAGRFSPDSLGDRLQRLHLPVVALGGITPDRLPQLRRAGFASAAALGYVWLVEGRELMRWQELCTPAVICVGGVDPSAGAGITADVRTAENMGVRAYTVATAITFQGSGSYRGERWVDSADIIRQIESLSAEMEPAVAKIGLIRDSDTLSLVVDCLKKVFPSIRIVWDPVLRASADSSAGQADRFNLEDITALSRIDFITPNLPEARHLLGCEPDDETLLDFYRRSGVGLVLKGGHAGESVVTDRIVYDGRCEALRLLRGGTGKHGTGCAHSTAFAAALALEQEPFTAAGMAQLYVSRLRERASGLLAMHKDLPVDPVVRLMSEIDLQFITHRQPDLSELEEAEAVCRIGVRWVQLRMKEASDEEMLHTACAVKAVCRHHGALFVVNDRVEIARQVDADGVHLGKEDMAIVEARRILGSNKIIGRTCNTMEDVRRAYAEGADYVGIGPYRYTETKQRLAPVLGLEGYKAIAACMQAEGIRLPAFAIGGIEDADIPLIRDCGIGGIAVSGSLIRKIKKEGHHHHHH", "soluble on expression in E. coli": "soluble"}, {"sequence": "MGSDKIHHHHHHMTLEHRWTGAISRLDLASGVLQQPDGDWVDEQLHHGTKVVVILRGAMRALIDGCGSEFSIAGPTVCVIRAPADASGRQMITADEPLHYVMVKAAFEPGSEADRERDPLAPLFCTDRPSLQHIEAPRALQALCTQLEVCPFVGAARDLFLSAKAIEILALACDAVETNIATETLRPSLGDVERLKKARAILLERLGAPPNLPALAAAVGMNPRKLTDGFQAAFGTTVNDFLQDARLNEAYRLLSSGATNVSEAAHRVGYTPAYFSAVFRKRFGISPRDLL", "soluble on expression in E. coli": "not soluble"}, {"sequence": "MAHHHHHHMDKYGDRKLQEGIYKLNNKKIKGYIPFQSASSIIPKQIRDKGIIEVMKELEKREEELNEKTKNDQEKHKVNKMNLFKSNSMNVKRKHVFSSFKIPRKI", "soluble on expression in E. coli": "soluble"}, {"sequence": "MSLKRFYSLFALPLITAATWANEPLPDRQTELPAVKKENHGEYLQPRDLSKIPNTAFGDQVKRGYSLFVNSQQMRGKYVGNEQNCVNCHMEAGRKANAAPLWAAYMAYPAYRKKNDRVNSYADRIQGCFEYSMNGKAPAYDSPEIVALSAYAYWLAMGGLLDSYGMNDEAVPELDIKALQVGGKAQDFPLPDAIAQALPVKERGNLAGRGYPKIAAPKQEPSPERGALVYEKNCETCHRADGSGIKGTDGHSYIPPLWGEFAYNWGAGMHRINTAAYFIYENMPLGKSVQLTEQEAWDVAAYINSHERPQDPRFKGNVTANAEKYHQHQGYYGKTLNGKQIGKNAFASGTEGHHHHHH", "soluble on expression in E. coli": "not soluble"}, {"sequence": "MDSVELCLPESFSLHYEEELLCRMSNKDRHIDSSCSSFIKTEPSSPASLTDSVNHHSPGGSSDASGSYSSTMNGHQNGLDSPPLYPSAPILGGSGPVRKLYDDCSSTIVEDPQTKCEYMLNSMPKRLCLVCGDIASGYHYGVASCEACKAFFKRTIQGNIEYSCPATNECEITKRRRKSCQACRFMKCLKVGMLKEGVRLDRVRGGRQKYKRRIDAENSPYLNPQLVQPAKKPYNKIVSHLLVAEPEKIYAMPDPTVPDSDIKALTTLCDLADRELVVIIGWAKHIPGFSTLSLADQMSLLQSAWMEILILGVVYRSLSFEDELVYADDYIMDEDQSKLAGLLDLNNAILQLVKKYKSMKLEKEEFVTLKAIALANSDSMHIEDVEAVQKLQDVLHEALQDYEAGQHMEDPRRAGKMLMTLPLLRQTSTKAVQHFYNIKLEGKVPMHKLFLEMLEAKV", "soluble on expression in E. coli": "soluble"}, {"sequence": "MGSSHHHHHHSSGLVPRGSHMSGALKENSGKPSEVEYTHFKDLQALEMERGRLYETIVVTWDDSMVGNAAPIGVLCTGDDTVTLYLYQGTRTVENVLNNGRFTVNVTLDPLIFTDSTLGDLEEDMFSHYRDFLHLRGADAFFTAEVVSVKKLVKRDRFGESELHVVKARAGDVMRAESFRMALNRGIYAVIESLIAYTRAEFSDPLVLRERIAEMNRVARKVGGPREKEAMRRIIQALESKIS", "soluble on expression in E. coli": "soluble"}, {"sequence": "MTKGSPGDTPDKASDRAARGASDASDASDAWRRWHEQRVATVSAPYGPLALTGTHWLEDHPDGQLPDIPGRWTTDGDAVLLTAGRADGLTVDGRLLDGEARLTADRGPVGAARVARGERRLVVLVREGLWGVRDFDPAAPARRAFRGIAATPYDPRWSVPGRFTPYDTGRRSVRVPNADGRERGLALGGELAFELDGRAHTLQVGVEDDGSLWAVFADATSGSTSYRFRFLRPAAPDAEGRTTVDLNRALLPPCAFADHFVCPFPPPGNTLGARVEAGERELRLEHHHHHH", "soluble on expression in E. coli": "soluble"}, {"sequence": "SEEVEAEEPQEFSHRQRLKAAVHYTVGCLCQEVTLNKQVNFSKQTIAAISEVTFRQCENFAKDLEMFARWVEKLAV", "soluble on expression in E. coli": "soluble"}, {"sequence": "MGSDKIHHHHHHMKQLTMPLTALALFTLGGCVTNSDLDVVRRDLDELKNRQFQVEKEVGGVRTEATARIESSFKDLDTERAGVRKGLADLQAAMDGIKVDMQVLAGKVDDVGLAAKKPGDDLILLREDLERRLTAFDQRLAKAETGIEALQKKVAEQAPSPKETEKPTPEALYQKGLDAYRAGNYGVARESFTRFLEQHPKHELAANARYWTGETYYSEKKFEQAILEFQEVIKNYPGKEKVPAAMLKQAAAFSEIGDAKSARFVLRKLADDYPSSEEAKRAKDRLKELK", "soluble on expression in E. coli": "not soluble"}, {"sequence": "MAHHHHHHMASAVVAPPRGIKADPRASPNQGRRNGDGGRVLHAVPEEANKRRREREEAQHGAARYRGRNGQAVAELHGTARVKVNLVRRGTSKRRKGGRVGHLHHKPRRAPRPLAKHICPRALGETRISDGRPRPPQPRSDERHGSEGVVAVGAHVPYGSAPLRRRKHRNEAGRQQVRRVRHVRRLVPRVEGEVKPHVQLQRLTRRNHAHVPTQRGEADELGTLLHSNHVKVTAHRRGRRCRPKASARAAAGRERRRHARSRRSAPPAQVRRIDARRVAQKRSTHVHNRVIPDRSNAVRTRRGGRNDTLALRQHETHRRAAARGDLSVPHHNGAVGPHLHLRRQRVPRRHARRQRHIAVLNSHTLVPRAAVGARHAVHPDTRRQPCSRGV", "soluble on expression in E. coli": "not soluble"}, {"sequence": "MRPLDENLRTSAASRPAQSLSVRGQPEAESGAFGEAIADAGRRRTQGQGGQTSADDARRDSVANGGNASAVPKADGFGADVPASTADAASPDARPAYERAIITRDQAAKRLQHSHPAGTRHLSQGREDGGEEIAQPAERAVVRSRETVQTSRDSVDEASGVTAREGGENGDPASGTVSDLLSMLTGAAPAVAAASQPEGRAKPASAVRDGSDGPAKAVGGISPAVPDGEHPQTGEGTGGSEPDRLFRFARADGKGQAVSMNISRDGERAVVENSRSSVKPGVETVTVLEARRYLGLAVNENATSVTTAIAGDSGWAEALQSSAATTKPEAWSQAGKTLNTLKIQMHPVDLGMVTATLRLKDDELQVDLKVETGEAFRQLRDDQSEMVKALRAQGFAVDQVNIVFNGGGDSASGGGGQSQAQAQLGYEGRERAGDDGQGRQPRDGGRAATERWAGNDATDDVPDGAERSRAGHVYM", "soluble on expression in E. coli": "not soluble"}, {"sequence": "MTNQQDYTQDNDKLYRYLFQHRAVRGEWVRLNKTFTDTLNTHQYPKAVQDLLGEMMVATNLLTATLKFAGNITVQIQGDGPLRLALVNGNDQQQIRALARVDGNITENMSLHNMIGKGVLVITIAPKEGERYQGVISLDKPTITECLEDYFVRSEQLQTQLIIRTGEYEGKPVAAGMLLQIMPDGSGTPEDFEHLTTLAATVKDEELFGLPAEELLYRLYHEETVNLYPAQDVQFFCGCSAERSSSALLLISDEEIDEILAEHKGRIDMQCECCGTHYFFNKEAIEKLKSTRV", "soluble on expression in E. coli": "not soluble"}, {"sequence": "MGSDKIHHHHHHMKKGFSALVEHNGYRVLVDTGTDGKILLNNMEGLGIDPNSIDALFLTHGHYDHTGGIAELLKARKDTLDVYAHPRIFEKRIALKPKRRDIGIPFSQEELESLGAIFHLNDKALEFLPGLISSGEIKRETWDRAVGYLLNNEKDPVRDDMALLIDLGDKIAVITGCGHSGILNIAKHAVEISKKPIRALIGGFHLRGASITILEDAVRGLKELNVEMLYPGHCTGIDEYAYLRMKLKAEHLNVGKEIVIK", "soluble on expression in E. coli": "not soluble"}, {"sequence": "DQVDVKDCANNEIKKVMVDGCHGSDPCIIHRGKPFTLEALFDANQNTKTAKIEIKASLDGLEIDVPGIDTNACHFVKCPLVKGQQYDIKYTWNVPKIAPKSENVVVTVKLIGDNGVLACAIATHGKIRD", "soluble on expression in E. coli": "soluble"}, {"sequence": "MSEKLVLSSGKCFLHEVLCRREEKEYRQNRANLRRGADTTTEVYAFPYVYPQLPQEATTQERLVLMRVAALAAEFGNIPAVGSDTPAKSLGRWAYEVSRQRMLDRQQQVAFNPKKLDVVGERLAYLHTQDFEEAVRAVSRLMSIASSLSNVPAFDYIALYSLFSYWGNGISEKSQRVRMRVLQDYYGSFGSLIE", "soluble on expression in E. coli": "not soluble"}, {"sequence": "PAGPFTRALWEASGDIIAGINSSDFITMLGDGTLRRPEFDFYIDQDAQYLAQYSRALARLSSIAPDSHAQIEWAQSAAECLVVEAELHRSYMAGKEVSAPSHITMAYTDFLIARTYTEDYVCGVAAVLPCYWLYAEIGLMLAEQNHDEHPYKDWLNTYSGEEFIAGTRAAIARLEKALENAGAEQRVDAARAFLSASVHEREFFDQATRHG", "soluble on expression in E. coli": "not soluble"}, {"sequence": "GPGSEHLTTVAAPFTCPIRRTVFAEGRRTIIFFRNIDATTAVFHQLRSAGFAVSLLHASLPYKVRKEMYADFASGRTNILCATDVAARGLDLHVDMVINFDVPTNALAYLSRSGRTARMGREGQVLNLYNKHQGVIVSAIKAFLKDNLPMEGLTNRKADMMQPRYAEWRTHKINALARSYVSLITR", "soluble on expression in E. coli": "not soluble"}, {"sequence": "MKIKEVIVVEGKDDTAAIRRAVDADTIETNGAAVGADVIERIKLAKERRGVIIFTDPDFPGEKIRRTIAEQVPGCKHAFLPREAAKAKNGKGIGVEHASPDEIRRALANVYEEASDWKEEITFAELIEAGLIGGAMARRRRQRLGEELKIGYANGRQFHKRLQVFRISRDAFYAALAHVMQEEADDV", "soluble on expression in E. coli": "not soluble"}, {"sequence": "MKKILSILLALLLSISSLGVTTSHAEEKIHIEAAAALLFDADTGKILHEQNPDELLAIASMSKLIVVYAVLEAIKEGKITWDTKVNISDYAYEVSRNNEFSNVPFEKGRQYTVRELYHSIVIFSANGSSIALAELLAGSEKNFLNLANEHAKKLGLKKYKFVNATGLNNTDLKGKHPEGTDPNAENSMSARDMGILSKAMITKYPEMLEDTKQRFRNFPDNHPKPIRMENWNWMLPGAAFAYEGTDGLKTGSSDTAGYGFTITAKRGDVRLISVIIKTKSMDERFTESRELIEYGFNNFEKQKLKVDKNNTLSVAQGKEDQVTVAPEKEITVIAKKGSKNPYKIGTEVDKSLAEDGHLVAPIKKDAKVGSITLESTDKYGFLDGSNSMKVTAKTTEEVEKANWFVLTMRSIGDFFSNLWSKVF", "soluble on expression in E. coli": "not soluble"}, {"sequence": "MVNQPLVSIIIPAYRAENTIAFTVRSVLAQTYDHWQVAIGVDDQVDYLQLLAEQGINDPRLKQVFTGGIGSGEAIARNKAVSICDGDILANLDADDAFASDRLEKLVPLAEKYGVAIDNTGVYNSELVLYKQPFPQRQALNFATAADILSPRIPFFPVFQRQLLGDGWTKVPFAADVLFNLELLSRTEKVAIHPEPLYRYYKRDNSITQSANAFETAEKAYLTILSLLDEGALTLTDAIRQAARQEFSENLALNKVFRRYMEEGRCQNLEQFLDMTNNGQKIEFVSNLNLEHHHHHH", "soluble on expression in E. coli": "soluble"}, {"sequence": "NGGVGVDVELITSINVENDTFIERNFTPQEIEYCSAQPSVQSSFAGTWSAKEAVFKSLGVKSLGGGAALKDIEIVRTNKNAPAVELHGNAKKAAEEAGVTDVKVSISHDDLQAVAVAVSTKK", "soluble on expression in E. coli": "soluble"}]}]}
